In US20200024330A1:

Key:
[1] = molecular target: Env of the clade D HIV-1 pseudoviruses of the cross-clade 162-pseudovirus panel (n = 25); experiment: cell-based or functional assay
[2] = molecular target: Env of the clade G HIV-1 pseudoviruses of the cross-clade 162-pseudovirus panel (n = 15); experiment: cell-based or functional assay
[3] = molecular target: HIV-1 92BR020 envelope glycoprotein (Env) (HIV-1); experiment: cell-based or functional assay
[4] = molecular target: HIV-1 Env of isolate 92RW008 (HIV-1); experiment: cell-based or functional assay
[5] = molecular target: HIV-1 Env of isolate 92WR009 (HIV-1); experiment: cell-based or functional assay
[6] = molecular target: HIV-1 Env of isolate 92WR021 (HIV-1); experiment: cell-based or functional assay
[7] = molecular target: HIV-1 Env of isolate 94UG103 (HIV-1); experiment: cell-based or functional assay
[8] = molecular target: HIV-1 Env of isolate CMU02 (HIV-1); experiment: cell-based or functional assay
[9] = molecular target: HIV-1 Env of isolate MGRM-A-002 (HIV-1); experiment: cell-based or functional assay
[10] = molecular target: HIV-1 Env of isolate MGRM-A-007 (HIV-1); experiment: cell-based or functional assay
[11] = molecular target: HIV-1 Env of isolate MGRM-A-010 (HIV-1); experiment: cell-based or functional assay
[12] = molecular target: HIV-1 Env of isolate MGRM-C-026 (HIV-1); experiment: cell-based or functional assay
[13] = molecular target: HIV-1 JR-CSF Env D325A (HIV-1 isolate JR-CSF) (UniProt P20871); experiment: cell-based or functional assay
[14] = molecular target: HIV-1 JR-CSF Env H330A (HIV-1 isolate JR-CSF) (UniProt P20871); experiment: cell-based or functional assay
[15] = molecular target: HIV-1 JR-CSF Env I307A (HIV-1 JR-CSF) (UniProt P20871); experiment: cell-based or functional assay
[16] = molecular target: HIV-1 JR-CSF Env I309A (HIV-1 JR-CSF) (UniProt P20871); experiment: cell-based or functional assay
[17] = molecular target: HIV-1 JR-CSF Env I323A (HIV-1 isolate JR-CSF) (UniProt P20871); experiment: cell-based or functional assay
[18] = molecular target: HIV-1 JR-CSF Env I326A (HIV-1 isolate JR-CSF) (UniProt P20871); experiment: cell-based or functional assay
[19] = molecular target: HIV-1 JR-CSF Env I420A (HIV-1 (isolate JR-CSF)) (UniProt P20871); experiment: cell-based or functional assay
[20] = molecular target: HIV-1 JR-CSF Env K343A (HIV-1 isolate JR-CSF) (UniProt P20871); experiment: cell-based or functional assay
[21] = molecular target: HIV-1 JR-CSF Env N276A (HIV-1 JR-CSF) (UniProt P20871); experiment: cell-based or functional assay
[22] = molecular target: HIV-1 JR-CSF Env N295A (HIV-1 JR-CSF) (UniProt P20871); experiment: cell-based or functional assay
[23] = molecular target: HIV-1 JR-CSF Env N386A (HIV-1 isolate JR-CSF) (UniProt P20871); experiment: cell-based or functional assay
[24] = molecular target: HIV-1 JR-CSF Env N396A (HIV-1 (isolate JR-CSF)) (UniProt P20871); experiment: cell-based or functional assay
[25] = molecular target: HIV-1 JR-CSF Env N411A (HIV-1 (isolate JR-CSF)) (UniProt P20871); experiment: cell-based or functional assay
[26] = molecular target: HIV-1 JR-CSF Env P299A (HIV-1 JR-CSF) (UniProt P20871); experiment: cell-based or functional assay
[27] = molecular target: HIV-1 JR-CSF Env P313A (HIV-1 JR-CSF) (UniProt P20871); experiment: cell-based or functional assay
[28] = molecular target: HIV-1 JR-CSF Env R315A (HIV-1 isolate JR-CSF) (UniProt P20871); experiment: cell-based or functional assay
[29] = molecular target: HIV-1 JR-CSF Env R350A (HIV-1 isolate JR-CSF) (UniProt P20871); experiment: cell-based or functional assay
[30] = molecular target: HIV-1 JR-CSF Env S199A (HIV-1 JR-CSF) (UniProt P20871); experiment: cell-based or functional assay
[31] = molecular target: HIV-1 JR-CSF Env S306A (HIV-1 JR-CSF) (UniProt P20871); experiment: cell-based or functional assay
[32] = molecular target: HIV-1 JR-CSF Env S334A (HIV-1 isolate JR-CSF) (UniProt P20871); experiment: cell-based or functional assay
[33] = molecular target: HIV-1 JR-CSF Env T202A (HIV-1 JR-CSF) (UniProt P20871); experiment: cell-based or functional assay
[34] = molecular target: HIV-1 JR-CSF Env T297A (HIV-1 JR-CSF) (UniProt P20871); experiment: cell-based or functional assay
[35] = molecular target: HIV-1 JR-CSF Env T303A (HIV-1 JR-CSF) (UniProt P20871); experiment: cell-based or functional assay
[36] = molecular target: HIV-1 JR-CSF Env T320A (HIV-1 isolate JR-CSF) (UniProt P20871); experiment: cell-based or functional assay
[37] = molecular target: HIV-1 JR-CSF Env T394A (HIV-1 (isolate JR-CSF)) (UniProt P20871); experiment: cell-based or functional assay
[38] = molecular target: HIV-1 JR-CSF Env W395A (HIV-1 (isolate JR-CSF)) (UniProt P20871); experiment: cell-based or functional assay
[39] = molecular target: HIV-1 MGRM-C-028 envelope glycoprotein (Env) (HIV-1); experiment: cell-based or functional assay
[40] = molecular target: HIV-1 NL43 envelope glycoprotein (Env) (HIV-1); experiment: cell-based or functional assay
[41] = molecular target: JR-FL gp120 ΔV1/ΔV2 (HIV-1 (isolate JR-FL)); experiment: ELISA on coated gp120; EC50 by nonlinear regression
[42] = molecular target: WT JR-FL gp120 (HIV-1 (isolate JR-FL)); experiment: as above

B1: PGT-126 (antibody, V domains shown)
VH: QPQLQESGPGLVEASETLSLTCTVSGDSTAACDYFWGWVRQPPGKGLEWIGGLSHCAGYYNTGWTYHNPSLKSRLTISLDTPKNQVFLKLNSVTAADTAIYYCARFDGEVLVYHDWPKPAWVDLWGRGTLVTVSS
VL: QSALTQPPSASGSPGQSISISCTGTSNRFVSWYQQHPGKAPKLVIYGVNKRPSGVPDRFSGSKSGNTASLTVSGLQTDDEAVYYCSSLVGNWDVIFGGGTKLTVL
[1]
  Median IC50 against viruses neutralized with an IC50 <50 µg/ml: 0.04 µg/mL
[2]
  Median IC50 against viruses neutralized with an IC50 <50 µg/ml: 0.18 µg/mL
[3]
  IC50 neutralization: 0.0163 µg/mL
[4]
  IC50 (µg/mL), pseudovirus neutralization: 0.008 µg/mL
[5]
  IC50 (µg/mL), pseudovirus neutralization: > 50 µg/mL
[6]
  IC50 (µg/mL), pseudovirus neutralization: 0.006 µg/mL
[7]
  IC50 (µg/mL), pseudovirus neutralization: 0.008 µg/mL
[8]
  IC50 (µg/mL), pseudovirus neutralization: > 50 µg/mL
[9]
  IC50 (µg/mL), pseudovirus neutralization: 0.015 µg/mL
[10]
  IC50 (µg/mL), pseudovirus neutralization: > 50 µg/mL
[11]
  IC50 (µg/mL), pseudovirus neutralization: 0.002 µg/mL
[12]
  Polyclonal Transfectant Neutralization Index (well 5141 B17): 102
  Primary Neutralization Index (B cell culture well 5141 B17): 654
[13]
  Fold IC50 increase relative to wild-type: 0.5 fold
[14]
  Fold IC50 increase relative to wild-type: 0.5 fold
[15]
  Fold IC50 increase relative to wild-type: 1.8 fold
[16]
  Fold IC50 increase relative to wild-type: 1.2 fold
[17]
  Fold IC50 increase relative to wild-type: 0.9 fold
[18]
  Fold IC50 increase relative to wild-type: 0.8 fold
[19]
  Fold IC50 increase relative to wild-type: 0.6 fold
[20]
  Fold IC50 increase relative to wild-type: 1.2 fold
[21]
  Fold IC50 increase relative to wild-type: 0.9 fold
[22]
  Fold IC50 increase relative to wild-type: 0.9 fold
[23]
  Fold IC50 increase relative to wild-type: 0.9 fold
[24]
  Fold IC50 increase relative to wild-type: 1.7 fold
[25]
  Fold IC50 increase relative to wild-type: 0.7 fold
[26]
  Fold IC50 increase relative to wild-type: 0.2 fold
[27]
  Fold IC50 increase relative to wild-type: 0.4 fold
[28]
  Fold IC50 increase relative to wild-type: 1 fold
[29]
  Fold IC50 increase relative to wild-type: 0.7 fold
[30]
  Fold IC50 increase relative to wild-type: 0.8 fold
[31]
  Fold IC50 increase relative to wild-type: 0.7 fold
[32]
  Fold IC50 increase relative to wild-type: > 30 fold
[33]
  Fold IC50 increase relative to wild-type: 0.8 fold
[34]
  Fold IC50 increase relative to wild-type: 0.8 fold
[35]
  Fold IC50 increase relative to wild-type: > 250 fold
[36]
  Fold IC50 increase relative to wild-type: 0.6 fold
[37]
  Fold IC50 increase relative to wild-type: 0.6 fold
[38]
  Fold IC50 increase relative to wild-type: 0.6 fold
[39]
  IC50 neutralization: 0.283 µg/mL
[40]
  IC50 neutralization: > 10 µg/mL
[41]
  EC50: 0.3 µg/mL
[42]
  EC50: 0.1 µg/mL

B2: PGT-123 (antibody, V domains shown)
VH: QLHLQESGPGLVKPPETLSLTCSVSGASINDAYWSWIRQSPGKRPEWVGYVHHSGDTNYNPSLKRRVTFSLDTAKNEVSLKLVDLTAADSATYFCARALHGKRIYGIVALGELFTYFYMDVWGKGTAVTVSS
VL: SSMSVSPGETAKISCGKESIGSRAVQWYQQKPGQPPSLIIYNNQDRPAGVPERFSASPDFRPGTTATLTITNVDAEDEADYYCHIYDARGGTNWVFDRGTTLTVL
[1]
  Median IC50 against viruses neutralized with an IC50 <50 µg/ml: 0.02 µg/mL
[2]
  Median IC50 against viruses neutralized with an IC50 <50 µg/ml: 0.04 µg/mL
[3]
  IC50 neutralization: 0.013 µg/mL
[4]
  IC50 (µg/mL), pseudovirus neutralization: 0.003 µg/mL
[5]
  IC50 (µg/mL), pseudovirus neutralization: 15.7 µg/mL
[6]
  IC50 (µg/mL), pseudovirus neutralization: 0.005 µg/mL
[7]
  IC50 (µg/mL), pseudovirus neutralization: 0.678 µg/mL
  Primary Neutralization Index (B cell culture well 4858 P8): 1.1
[8]
  IC50 (µg/mL), pseudovirus neutralization: > 50 µg/mL
[9]
  IC50 (µg/mL), pseudovirus neutralization: 0.011 µg/mL
[10]
  IC50 (µg/mL), pseudovirus neutralization: > 50 µg/mL
[11]
  IC50 (µg/mL), pseudovirus neutralization: 0.705 µg/mL
[12]
  Primary Neutralization Index (B cell culture well 4858 P8): 33.8
[13]
  Fold IC50 increase relative to wild-type: 64 fold
[14]
  Fold IC50 increase relative to wild-type: 0.3 fold
[15]
  Fold IC50 increase relative to wild-type: 5.9 fold
[16]
  Fold IC50 increase relative to wild-type: 1.6 fold
[17]
  Fold IC50 increase relative to wild-type: 1 fold
[18]
  Fold IC50 increase relative to wild-type: 0.4 fold
[19]
  Fold IC50 increase relative to wild-type: 3.2 fold
[20]
  Fold IC50 increase relative to wild-type: 0.3 fold
[21]
  Fold IC50 increase relative to wild-type: 1.1 fold
[22]
  Fold IC50 increase relative to wild-type: 1.2 fold
[23]
  Fold IC50 increase relative to wild-type: 1.4 fold
[24]
  Fold IC50 increase relative to wild-type: 1.2 fold
[25]
  Fold IC50 increase relative to wild-type: 0.5 fold
[26]
  Fold IC50 increase relative to wild-type: 0.7 fold
[27]
  Fold IC50 increase relative to wild-type: 0.2 fold
[28]
  Fold IC50 increase relative to wild-type: 0.7 fold
[29]
  Fold IC50 increase relative to wild-type: 0.5 fold
[30]
  Fold IC50 increase relative to wild-type: 1.1 fold
[31]
  Fold IC50 increase relative to wild-type: 0.5 fold
[32]
  Fold IC50 increase relative to wild-type: > 50 fold
[33]
  Fold IC50 increase relative to wild-type: 1.2 fold
[34]
  Fold IC50 increase relative to wild-type: 0.3 fold
[35]
  Fold IC50 increase relative to wild-type: 1.1 fold
[36]
  Fold IC50 increase relative to wild-type: 0.7 fold
[37]
  Fold IC50 increase relative to wild-type: 0.4 fold
[38]
  Fold IC50 increase relative to wild-type: 0.4 fold
[39]
  IC50 neutralization: 0.443 µg/mL
[40]
  IC50 neutralization: > 10 µg/mL
[41]
  EC50: 0.3 µg/mL
[42]
  EC50: 0.2 µg/mL
